# From patent US20130102527A1 (TRUSTEES OF DARTMOUTH COLLEGE, published 2013)
# Read-outs that look alike come from different tables or passages of the source. Non-standard residues stand in square brackets, D forms with d. Primed or numbered codes have the meaning given here. No end group written: not given here. *: point of attachment. N3‑Phe = N-terminal azido-phenylalanine, [N-]=[N+]=N[C@@H](Cc1ccccc1)C(=O)*; HMB = 3-hydroxy-2-methylbenzoyl cap, Cc1c(O)cccc1C(=O)*; Phe(4-N3) = [N-]=[N+]=Nc1ccc(C[C@H](N)C(=O)O)cc1; Phe(4-CH2NH2) = NCc1ccc(C[C@H](N)C(=O)O)cc1; Phe(4-NH2) = Nc1ccc(C[C@H](N)C(=O)O)cc1; N3Phe = N-terminal azido-phenylalanine; 4Pal = N[C@@H](Cc1ccncc1)C(=O)O; VS″ = vinyl sulfone (warhead); VS = vinyl sulfone warhead; EK = epoxyketone warhead; ek = epoxyketone warhead
# T1: chymotrypsin-like site (β5 subunit) of 26S proteasomes purified from rabbit muscle (rabbit, UniProt G1T4Q9 60-263)
# T1 sequence: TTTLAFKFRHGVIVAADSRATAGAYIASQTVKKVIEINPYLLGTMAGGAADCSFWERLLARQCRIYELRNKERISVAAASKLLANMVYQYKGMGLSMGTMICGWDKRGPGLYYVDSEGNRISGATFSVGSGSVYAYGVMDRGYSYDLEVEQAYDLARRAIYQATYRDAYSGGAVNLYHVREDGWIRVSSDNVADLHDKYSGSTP
# T2: trypsin-like site (β2 subunit) of 26S proteasomes purified from rabbit muscle (rabbit, UniProt G1SWK8 44-271)
# T2 sequence: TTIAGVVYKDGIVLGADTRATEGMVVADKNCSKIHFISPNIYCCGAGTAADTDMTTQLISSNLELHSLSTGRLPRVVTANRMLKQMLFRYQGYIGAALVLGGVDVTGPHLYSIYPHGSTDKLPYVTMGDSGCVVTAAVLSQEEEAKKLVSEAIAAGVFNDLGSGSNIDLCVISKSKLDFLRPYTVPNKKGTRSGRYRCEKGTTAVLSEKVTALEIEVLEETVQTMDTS
# T3: chymotrypsin-like site (β5 subunit) of yeast 20S proteasome (S. cerevisiae, UniProt P30656 76-287)
# T3 sequence (looked up): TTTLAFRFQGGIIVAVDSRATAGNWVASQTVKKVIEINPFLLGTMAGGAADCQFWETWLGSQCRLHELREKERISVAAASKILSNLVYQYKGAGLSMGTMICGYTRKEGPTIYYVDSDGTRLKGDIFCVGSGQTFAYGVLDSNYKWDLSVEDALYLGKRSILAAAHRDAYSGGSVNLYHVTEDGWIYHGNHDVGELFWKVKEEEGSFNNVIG
# T4: trypsin-like site (β2 subunit) of yeast 20S proteasome (S. cerevisiae, UniProt P25043 30-261)
# T4 sequence (looked up): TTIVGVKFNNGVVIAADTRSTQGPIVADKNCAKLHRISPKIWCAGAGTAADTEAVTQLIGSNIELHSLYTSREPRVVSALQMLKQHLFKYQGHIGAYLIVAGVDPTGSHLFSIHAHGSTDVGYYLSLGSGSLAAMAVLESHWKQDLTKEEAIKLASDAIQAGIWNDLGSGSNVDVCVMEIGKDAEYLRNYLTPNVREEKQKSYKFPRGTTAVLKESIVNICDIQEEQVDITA
# Legend:
# [1] = biological target: T1, chymotrypsin-like site (β5 subunit) of …; assay: cell-based or functional assay
# [2] = biological target: T5, caspase-like site (β1 subunit) of 26S proteasomes purified from rabbit muscle (rabbit); assay: cell-based or functional assay
# [3] = biological target: T2, trypsin-like site (β2 subunit) of 26S …; assay: cell-based or functional assay
# [4] = biological target: T6, proteasome β1 subunit (caspase-like site) in human cells and cell extracts (human, UniProt P28072 35-239); assay: cell-based or functional assay
# T6 sequence (P28072 35-239): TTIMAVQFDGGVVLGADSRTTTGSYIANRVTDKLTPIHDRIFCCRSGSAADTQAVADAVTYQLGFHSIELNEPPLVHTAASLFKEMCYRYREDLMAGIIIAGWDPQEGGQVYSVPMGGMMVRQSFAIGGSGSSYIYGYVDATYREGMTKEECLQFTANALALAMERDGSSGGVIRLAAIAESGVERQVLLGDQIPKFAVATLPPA
# [5] = biological target: T1, chymotrypsin-like site (β5 subunit) of …; assay: cell-based or functional assay; remark: listed apart in the source
# [6] = biological target: T2, trypsin-like site (β2 subunit) of 26S …; assay: cell-based or functional assay; remark: listed apart in the source
# [7] = biological target: T7, proteasome β5 subunit (chymotrypsin-like site) in human cells and cell extracts (human, UniProt P28074 60-263); assay: competition with activity-based probe in living HEK-293 cells, 4 h; Chym-L site
# T7 construct: mature; also called Chym-L; chymotrypsin-like sites
# [8] = biological target: T6, proteasome β1 subunit (caspase-like …); assay: labelling and competition assay in HEK-293T lysate, fluorescence gel
# [9] = biological target: T2, trypsin-like site (β2 subunit) of 26S …; assay: cell-based or functional assay; remark: listed apart in the source
# [10] = biological target: T5, caspase-like site (β1 subunit) of 26S …; assay: cell-based or functional assay; remark: listed apart in the source
# [11] = biological target: T3, chymotrypsin-like site (β5 subunit) of …; assay: cell-based or functional assay
# [12] = biological target: T4, trypsin-like site (β2 subunit) of yeast …; assay: cell-based or functional assay
# [13] = biological target: T4, trypsin-like site (β2 subunit) of yeast …; assay: cell-based or functional assay; remark: listed apart in the source
# [14] = biological target: T7, proteasome β5 subunit …; assay: cell-based or functional assay
binder,measurement,setting,value
[N3Phe]LL[Phe(4-NH2)]-{VS} [N3-Phe-Leu-Leu-Phe(4-NH2)-VS (45a)],IC50 (µM) for sites in 26S proteasomes: Chym-L,[1],0.04 µM
same,IC50 (µM) for sites in 26S proteasomes: Casp-L,[2],23 µM
[Phe(4-N3)]LL[Phe(4-CH2NH2)]-{EK} (also: TFA salt) [N3Phe-Leu-Leu-Phe(4-CH2NH2)EK TFA salt (4b)],IC50 (µM) for sites in 26S proteasomes: Tr-L,[3],0.25 µM
same,IC50 (µM) for sites in 26S proteasomes: Casp-L,[2],11 µM
[N3Phe][4Pal]L[Phe(4-CH2NH2)]-{VS} (also: TFA salt) [N3-Phe-Ala(4-pyridine)-Leu-Phe(4-CH2NH2-TFA)-VS (50)],"IC50 (µM) for sites: Casp-L; NCI-H929 cells, 6 h, PROTEASOMEGLO",[4],> 30 µM
same,IC50 (µM) for sites: Chym-L,[5],1.05 µM
same,IC50 (µM) for sites: Tr-L,[6],0.012 µM
same,IC50,[7],> 50 µM
"{BODIPY‑triazole}-FLL[Phe(4-CH2NH2)]-{VS″} (also: TFA salt, Fluorescent probe made from compound 4a; also called compound 39) [BODIPY-triazole-Phe-Leu-Leu-Phe(4-CH2NH2)-VS TFA salt (39)]",binding result,[8],no binding
Ac-Leu-Leu-Arg-ek [NC-002 (Ac-Leu-Leu-Arg-ek)],IC50 (µM) for sites in 26S proteasomes: Chym-L,[1],> 30 µM
same,IC50 (µM) for sites in 26S proteasomes: Tr-L,[3],1 µM
same,IC50 (µM) for sites in 26S proteasomes: Casp-L,[2],> 30 µM
{HMB}-Val-Ser-[Phe(4-CH2NH2)]-{VS} [HMB-Val-Ser-Phe(4-CH2NH2)-VS (48)],"IC50 (µM) for sites: Casp-L; NCI-H929 cells, 6 h, PROTEASOMEGLO",[4],> 30 µM
same,"IC50 (µM) for sites: Casp-L; RPMI-8226 cells, 6 h, PROTEASOMEGLO",[4],> 30 µM
same,IC50 (µM) for sites in 26S proteasomes: Tr-L,[9],0.25 µM
same,IC50 (µM) for sites in 26S proteasomes: Casp-L,[10],11 µM
[N3‑Phe][Phe(4-CH2NH2)]L[Phe(4-CH2NH2)]-{VS} [N3-Phe-Phe(4-CH2NH2)-Leu-Phe(4-CH2NH2)-VS (52)],IC50 (µM) for yeast 20S proteasome: Chym-L,[11],6.1 µM
same,IC50 (µM) for yeast 20S proteasome: Tr-L,[12],0.00055 µM
same,fold potency against yeast trypsin-like sites relative to 4a,[13],> 4000 fold
[Phe(4-N3)]LL[Phe(4-NH2)]-{EK} [N3-Phe-Leu-Leu-Phe(4-NH2)-EK (45b)],IC50 (µM) for sites in 26S proteasomes: Chym-L,[1],0.01 µM
same,IC50 (µM) for sites in 26S proteasomes: Tr-L,[3],1.8 µM
same,IC50 (µM) for sites in 26S proteasomes: Casp-L,[2],> 30 µM
{HMB}-Val-Ser-Arg-ek [NC-022 (HMB-Val-Ser-Arg-ek)],"IC50 (µM) for sites: Chym-L; NCI-H929 cells, 6 h, PROTEASOMEGLO",[14],> 30 µM
same,"IC50 (µM) for sites: Chym-L; RPMI-8226 cells, 6 h, PROTEASOMEGLO",[14],> 30 µM
same,"IC50 (µM) for sites: Casp-L; NCI-H929 cells, 6 h, PROTEASOMEGLO",[4],> 30 µM
same,"IC50 (µM) for sites: Casp-L; RPMI-8226 cells, 6 h, PROTEASOMEGLO",[4],> 30 µM
same,IC50 (µM) for sites in 26S proteasomes: Tr-L,[9],0.0038 µM
same,IC50 (µM) for sites in 26S proteasomes: Casp-L,[10],16 µM
